In test [1] the target is mchr-Miro2 (human) (UniProt Q8IXI1).
Another test deals with mchr-Miro2 A13V (human) (UniProt Q8IXI1).
For test [2], the target named is mchr-Miro2 (human) (UniProt Q8IXI1). The source holds these as a separate data set.

Our source for the FRAP immobile fraction, live HeLa cells, FRAP t1/2 of mitochondrial GFP fluorescence, live HeLa cells and PARF immobile fraction, HeLa cells, 25 uM digitonin values is publication PMC8556674.

Chain of mchr-Miro2 (human) (Q8IXI1 whole entry): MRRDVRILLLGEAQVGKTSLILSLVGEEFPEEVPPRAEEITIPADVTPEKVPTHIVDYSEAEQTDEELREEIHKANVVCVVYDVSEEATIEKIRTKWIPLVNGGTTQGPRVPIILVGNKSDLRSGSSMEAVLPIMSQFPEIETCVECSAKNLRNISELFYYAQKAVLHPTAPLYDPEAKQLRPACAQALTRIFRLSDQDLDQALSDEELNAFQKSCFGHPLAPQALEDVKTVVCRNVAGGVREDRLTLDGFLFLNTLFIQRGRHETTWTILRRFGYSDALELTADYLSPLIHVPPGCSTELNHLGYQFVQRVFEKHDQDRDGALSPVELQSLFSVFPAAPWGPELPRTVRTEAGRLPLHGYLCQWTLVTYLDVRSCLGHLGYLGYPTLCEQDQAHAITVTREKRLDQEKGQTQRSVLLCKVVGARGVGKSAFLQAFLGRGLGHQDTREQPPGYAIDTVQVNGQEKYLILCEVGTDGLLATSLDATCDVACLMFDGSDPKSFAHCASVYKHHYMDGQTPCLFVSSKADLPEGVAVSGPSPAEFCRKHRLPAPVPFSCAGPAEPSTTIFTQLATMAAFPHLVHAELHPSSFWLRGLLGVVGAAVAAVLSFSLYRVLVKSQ
Chain of mchr-Miro2 A13V (human) (Q8IXI1 whole entry A13V): as the sequence (Q8IXI1 whole entry) above, with A13V counted along it

In the test with mchr-Miro2 (human) [1], “MYO19^898–970-GFP (from UniProt Q96H55 898-970) (domain or fragment)” had an FRAP immobile fraction, live HeLa cells of 0.03 and an FRAP t1/2 of mitochondrial GFP fluorescence, live HeLa cells of 9.2 s. The same substance had an FRAP immobile fraction, live HeLa cells with mchr-Miro2 A13V (human) of 0.14. In addition, the PARF immobile fraction, HeLa cells, 25 uM digitonin with mchr-Miro2 (human) [2] is 0.33.
As to “MYO19^898–970-GFP mut. (K923, R927 and K928 mutated to alanine) (from UniProt Q96H55 898-970) (domain or fragment)”, in the test with mchr-Miro2 (human) [1], the FRAP immobile fraction, live HeLa cells came out at 0.04 and the FRAP t1/2 of mitochondrial GFP fluorescence, live HeLa cells was 1.5 s.
